Target: 3HA-MCHR1 (melanin-concentrating hormone receptor 1) (mouse) (UniProt Q8JZL2)
Sequence of UniProt Q8JZL2 (Q8JZL2 whole entry): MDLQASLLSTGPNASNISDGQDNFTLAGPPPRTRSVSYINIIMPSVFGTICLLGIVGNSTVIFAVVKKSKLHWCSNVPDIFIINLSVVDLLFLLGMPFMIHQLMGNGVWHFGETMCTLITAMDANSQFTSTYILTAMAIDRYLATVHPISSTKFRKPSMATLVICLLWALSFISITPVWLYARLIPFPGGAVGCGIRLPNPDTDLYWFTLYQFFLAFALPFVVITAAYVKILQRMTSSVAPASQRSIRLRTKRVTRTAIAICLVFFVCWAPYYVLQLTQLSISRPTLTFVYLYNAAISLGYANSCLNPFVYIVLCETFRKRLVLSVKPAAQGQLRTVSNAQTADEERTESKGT

B1: Melanin concentrating hormone (MCH) (peptide)
peptide: DFDMLRCMLGRVYRPCWQV
Binder B1 has a LogEC50 of MCH (10^-11 to 10^-6 M), NFAT-luciferase Ca2+ reporter in HEK293T cells with MCHR1 alone of -8.15 log M, a LogEC50 of MCH, NFAT-luciferase Ca2+ reporter in HEK293T cells with MCHR1 and MRAP2 WT co-transfected (1:9) of -7.06 log M and a LogEC50 of MCH, NFAT-luciferase Ca2+ reporter in HEK293T cells with MCHR1 and MRAP2 t97 co-transfected (1:9) of -7.34 log M. The LogEC50 of MCH, NFAT-luciferase Ca2+ reporter in HEK293T cells with MCHR1 and MRAP2 t118 co-transfected (1:9) was -7.59 log M, the LogEC50 of MCH, NFAT-luciferase Ca2+ reporter in HEK293T cells with MCHR1 and MRAP2 t143 co-transfected (1:9) was -7.6 log M and the LogEC50 of MCH, NFAT-luciferase Ca2+ reporter in HEK293T cells with MCHR1 and MRAP2 Δ4–11 co-transfected (1:9) was -7.24 log M. For the same binder, the LogEC50 of MCH, NFAT-luciferase Ca2+ reporter in HEK293T cells with MCHR1 and MRAP2 Δ12–25 co-transfected (1:9) was -6.76 log M, the LogEC50 of MCH, NFAT-luciferase Ca2+ reporter in HEK293T cells with MCHR1 and MRAP2 Δ26–35 co-transfected (1:9) was -7.55 log M and the LogEC50 of MCH, NFAT-luciferase Ca2+ reporter in HEK293T cells with MCHR1 and MRAP2 Δ36–45 co-transfected (1:9) was -6.64 log M. For the same binder, the LogEC50 of MCH, NFAT-luciferase Ca2+ reporter in HEK293T cells with MCHR1 and MRAP2 Δct co-transfected (1:9) was -7.51 log M.
